From paper PMC7465229 come the findings set out here.

The data set deals with H5N1 influenza A virus, whole virion (hemagglutinin presumed target) (Influenza A virus H5N1 (A/wild duck/Korea/SNU50-5/2011)). Description: rGO fluorescence recovery. To be noted: assay buffer, pH and temperature not stated ([…].
As usually defined, the Kd is the free concentration of one partner at which half of the binding sites on the other are occupied at equilibrium, for simple one-to-one binding. Low values mean higher affinity, high ones lower affinity. Regarding “ATGCGGATCCCGCGCGCGACCGTGTCAGCGGGGACTAGCGGTGTAGCGCGAAGCTTGCGC [HBA1]”, the Kd was 70 nM. The sequence “ATGCGGATCCCGCGCGGGTCTGAGGAGTGCGCGGTGCCAGTGAGTGCGCGAAGCTTGCGC [HBA2]” showed a Kd of 122 nM.

Turning to CCGCGCGGGTCTGAGGAGTGCGCGG [tHBA2], the Kd came to 1320 nM. Regarding GACCGTGTCAGCGGGGACTAGCGGTG [tHBA1], the Kd came to 492 nM.
